According to US20140017168A1 (published 2014):
*: point of attachment. NOTA = O=C(O)CN1CCN(CC(=O)O)CCN(CC(=O)*)CC1; Aoc = NCCCCCCCC(=O)O

Columns and labels:
[1] = molecular target: T1, gastrin-releasing peptide receptor on PC-3 cells (UniProt P30550 1-384, limits assumed); assay: competition with 125I-BBN on PC-3 cells, inhibitor 250 to 2 nM
T1 construct: whole, on cells
Method: (§1) A NOTA-conjugated bombesin derivative (IMP468) was prepared as described above. […] Our initial experiment was to determine if IMP468 could specifically block bombesin from binding to PC-3 cells. We used IMP333 as a non-specific control. […] A range of 56 to 0.44 nM was used as our inhibitory concentrations.
This experiment was repeated using a commercially available BBN peptide. We increased the amount of inhibitory peptide from 250 to 2 nM to block the ¹²⁵I-BBN from binding to PC-3 cells.

[2] = molecular target: T1, gastrin-releasing peptide receptor on …; assay: competition with 125I-bombesin on 3x10^6 PC-3 cells, inhibitor 56 to 0.44 nM
Method: as §1

T1 sequence (P30550 whole entry): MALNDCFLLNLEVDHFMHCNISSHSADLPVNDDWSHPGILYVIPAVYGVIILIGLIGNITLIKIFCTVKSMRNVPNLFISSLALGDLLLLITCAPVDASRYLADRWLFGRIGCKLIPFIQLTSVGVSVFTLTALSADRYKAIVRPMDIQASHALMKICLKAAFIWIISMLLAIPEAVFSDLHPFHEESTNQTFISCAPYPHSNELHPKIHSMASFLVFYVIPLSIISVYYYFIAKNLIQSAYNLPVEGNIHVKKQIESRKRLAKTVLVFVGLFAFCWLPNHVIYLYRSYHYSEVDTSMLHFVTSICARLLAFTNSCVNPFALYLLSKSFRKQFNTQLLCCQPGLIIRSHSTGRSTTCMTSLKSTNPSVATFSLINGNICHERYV

IC50 [1]: 35.9 nM
IC50 [2]: 21.5 nM
B1: IMP468 (NOTA-NH-(CH2)7CO-Gln-Trp-Val-Trp-Ala-Val-Gly-His-Leu-Met-NH2) (peptide)
peptide: {NOTA-Aoc}-QWVWAVGHLM-NH2
SMILES: CSCC[C@H](NC(=O)[C@H](CC(C)C)NC(=O)[C@H](Cc1c[nH]cn1)NC(=O)CNC(=O)[C@@H](NC(=O)[C@H](C)NC(=O)[C@H](Cc1c[nH]c2ccccc12)NC(=O)[C@@H](NC(=O)[C@H](Cc1c[nH]c2ccccc12)NC(=O)[C@H](CCC(N)=O)NC(=O)CCCCCCCNC(=O)CN1CCN(CC(=O)O)CCN(CC(=O)O)CC1)C(C)C)C(C)C)C(N)=O
notes: also called NOTA-conjugated bombesin derivative; bombesin analogue
